In patent US20030190679A1 (Takeda / Millennium, published 2003):

B1: CARD domain of CARD-12 (residues 1-83) fused to the activation domain of pCMV-AD (plasmid pCMV-CARD-12-CARD/AD) (other, not shown: large carriers)
chain: MNFIKDNSRALIQRMGMTVIKQITDDLFVWNVLNREEVNIICCEKVEQDAARGIIHMILKKGSESCNLFLKSLKEWNYPLFQD
B2: T7-tagged procaspase-9 (enzyme, UniProt P55211 1-416, looked up, not shown: small tags and cut ends)
chain: MDEADRRLLRRCRLRLVEELQVDQLWDALLSRELFRPHMIEDIQRAGSGSRRDQARQLIIDLETRGSQALPLFISCLEDTGQDMLASFLRTNRQAAKLSKPTLENLTPVVLRPEIRKPEVLRPETPRPVDIGSGGFGDVGALESLRGNADLAYILSMEPCGHCLIINNVNFCRESGLRTRTGSNIDCEKLRRRFSSLHFMVEVKGDLTAKKMVLALLELAQQDHGALDCCVVVILSHGCQASHLQFPGAVYGTDGCPVSVEKIVNIFNGTSCPSLGGKPKLFFIQACGGEQKDHGFEVASTSPEDESPGSNPEPDATPFQEGLRTFDQLDAISSLPTPSDIFVSYSTFPGFVSWRDPKSGSWYVETLDDIFEQWAHSEDLQSLLLRVANAVSVKGIYKQMPGCFNFLRKKLFFKTS
notes: Transiently overexpressed in 293T cells

What was measured:
[1] = biological target: CARD domain of CARD-5 (ASC) fused to the DNA-binding domain of pCMV-BD (UniProt Q9ULZ3 107-195); assay: cell-based or functional assay
[2] = biological target: CARD domain of CARD-12 fused to the DNA-binding domain of pCMV-BD (self-association partner) (human); assay: cell-based or functional assay
myc-tagged CARD-12 = biological target: T1, myc-tagged CARD-12 (human, UniProt Q9NPP4 1-1024); assay: co-immunoprecipitation from 293T lysates (IP anti-T7, blot anti-myc)
T1 construct: Transiently overexpressed in 293T cells
Experimental: FIGS. 10A-10C depict the results of co-immunopreciptation analysis. FIG. 10A: After 24 hrs, extracts were prepared and immunoprecipitated (IP) with a monoclonal antibody to the T7 epitope. The immunoprecipitates were analyzed by SDS-PAGE and immunoblotted with an anti-myc polyclonal antibody. FIG. 10B: The cellular extracts were also immunoblotted (WB) with anti-T7 antibody. FIG. 10C: Extracts were also immunoprecipitated with a monoclonal antibody to myc, followed by WB with an anti-myc polyclonal antibody.
An additional mechanism by which CARD-12 may cause cell death is by the activation of upstream caspases via a CARD/CARD interaction. The proform of caspase-1 and caspase-9 both contain an N-terminal CARD. Therefore, caspase-1 and caspase-9 were investigated as possible CARD-12 signaling partners following transient overexpression in cells. Briefly, 293T cells transfected with plasmids were lysed in 50 mM Tris, pH 8.0, 120 mM NaCl, 1 mM EDTA, 0.5% Nonidet P-40 buffer and incubated with either a T7 (Sigma) or myc monoclonal antibody (SantaCruz Biotechnology, Inc.). The immune complexes were precipitated with protein G-Sepharose (Amersham Pharmacia Bio), washed extensively, and then subjected to SDS-polyacrylamide gel electrophoresis and immunoblotted with polyclonal antibody to myc (SantaCruz). […]

CARD domain of CARD-5 (ASC) fused to the DNA-binding domain of pCMV-BD, sequence (Q9ULZ3 whole entry, the tested form may be a part): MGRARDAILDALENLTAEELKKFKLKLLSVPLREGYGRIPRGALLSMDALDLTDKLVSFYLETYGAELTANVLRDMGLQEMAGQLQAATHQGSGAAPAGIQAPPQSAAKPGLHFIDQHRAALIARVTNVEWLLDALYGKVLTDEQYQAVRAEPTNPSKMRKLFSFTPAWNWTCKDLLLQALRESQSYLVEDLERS

Binder | relative luciferase activity (mammalian two-hybrid) [1] [fold] | relative luciferase activity (mammalian two-hybrid) [2] [fold] | binding result (myc-tagged CARD-12)
B1 | 10 | 30 | 
B2 |  |  | no binding
